From US20220249563A1 (LEGEND BIOTECH IRELAND, published 2022)
Residue numbers refer to the chain shown, from its start.

T1: extracellular domain of human DLL3 protein (aa27-466) having an N-terminal FLAG tag (AdipoGen, AG-40B-0151) (human, UniProt Q9NYJ7 27-466)
T1 construct: range 27-466; also called DLL3 ECD protein
T1 sequence (looked up): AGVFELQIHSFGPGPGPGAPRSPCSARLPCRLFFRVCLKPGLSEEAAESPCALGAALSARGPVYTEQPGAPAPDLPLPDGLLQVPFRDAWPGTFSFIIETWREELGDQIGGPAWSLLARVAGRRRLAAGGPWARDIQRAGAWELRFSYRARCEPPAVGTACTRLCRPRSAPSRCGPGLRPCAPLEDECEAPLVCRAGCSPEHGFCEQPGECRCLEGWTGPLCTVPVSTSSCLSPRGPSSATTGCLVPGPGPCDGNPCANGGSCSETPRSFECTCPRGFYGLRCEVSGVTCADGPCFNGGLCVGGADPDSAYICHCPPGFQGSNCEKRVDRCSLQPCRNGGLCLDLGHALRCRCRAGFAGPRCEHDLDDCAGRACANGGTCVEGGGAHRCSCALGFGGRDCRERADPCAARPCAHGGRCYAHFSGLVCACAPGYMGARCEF

B1: AS63997VH4 HCAb (Fc fusion, not shown: a dimerising Fc or GST)
chain: QVQLVESGGGVVQPGGSLRLSCAASFSGYGVSTMAWFRQAPGKGLEGVAAITVGSGNTYYADSVKGRFTISRDNSKNTLYLQMNSLRAEDTAVYYCAVGYLSGGSWDVPGRYNYWGQGTLVTVSS
notes: humanized sdAb fused with human IgG1 hinge and Fc (humanized HCAb), crude HEK293 medium
B2: AS63997VH5 HCAb (Fc fusion, not shown: a dimerising Fc or GST)
chain: B1 chain with L79V, V93M
notes: as for B1
B3: AS63997VH6 HCAb (Fc fusion, not shown: a dimerising Fc or GST)
chain: B1 chain with L45R, L79V, V93M
notes: as for B1
B4: AS64380VH7 HCAb (Fc fusion, not shown: a dimerising Fc or GST)
chain: EVQLVESGGGLVQPGGSLRLSCAASGNTYSSNYMGWFRQAPGKGREEVAVIYTRGGHTYYVDSVRGRFTISQDNAKNSVYLQMNSLRAEDTAMYYCAASSRHRLGLNNPRDYDYWGQGTLVTVSS
notes: as for B1
B5: AS64380 HCAb (Fc fusion, not shown: a dimerising Fc or GST)
chain: B4 chain with L11S, P14A, R19T, A23E, G44E, S78T, R87K, A88P, L120Q
notes: camel sdAb fused with human IgG1 hinge and Fc (chimeric HCAb), crude HEK293 medium
B6: AS64380VH6 HCAb (Fc fusion, not shown: a dimerising Fc or GST)
chain: B4 chain with R45L
notes: as for B1
B7: AS64380VH4 HCAb (Fc fusion, not shown: a dimerising Fc or GST)
chain: B4 chain with R45L, Q72R, V79L, M93V
notes: as for B1
B8: AS64380VH5 HCAb (Fc fusion, not shown: a dimerising Fc or GST)
chain: B4 chain with R45L, V79L, M93V
notes: as for B1
B9: AS63997 HCAb (Fc fusion, not shown: a dimerising Fc or GST)
chain: QVRLVESGGGSVQAGGSLRLSCAGSFSGYGVSTMAWFRQAPGKEREGVAAITVGSGNTYYADSVKGRFTISRDNAKRTVFLQMNSLKPEDTAMYYCAVGYLSGGSWDVPGRYNYWGQGTQVTVSS
notes: as for B5
B10: AS64511VH6 HCAb (Fc fusion, not shown: a dimerising Fc or GST)
chain: EVQLVESGGGLVQPGGSLRLSCAASRATYSTNYISWFRQAPGKGREAVATITTGDGETAYADSVKGRFTISRDNAKNSVYLQMNSLRAEDTAMYYCAANLRIGGDWFDGRDFRAWGQGTLVTVSS
notes: as for B1
B11: AS64511 HCAb (Fc fusion, not shown: a dimerising Fc or GST)
chain: B10 chain with E1Q, L11S, P14A, G44E, S78T, R87K, A88P, L120Q
notes: as for B5
B12: AS64511VH5 HCAb (Fc fusion, not shown: a dimerising Fc or GST)
chain: B10 chain with R45L
notes: as for B1
B13: AS64511VH4 HCAb (Fc fusion, not shown: a dimerising Fc or GST)
chain: B10 chain with R45L, V79L, M93V
notes: as for B1
B14: AS75376 (VHH)
VHH: QVQLKESGGGSVQAGGSLRLSCAASGYTYSSHSMGWFRQAPGKEREGVAVIYTGDGSTYYADSVKGRFTISQDNAKNTVYLQMNSLKPEDTAMYYCAADPNPDYMLPFRPSRRSWWGQGTQVTVSS
notes: camel sdAb; crude E. coli supernatant
B15: AS68355 (VHH)
VHH: QMQLVESGGDSVQAGGSLRLSCAASGYTYSGVCMGWFRQAPGKEREGVAAIDSDGSTSYADSVKGRFTISKDNAKNTLYLQMNSLKPEDTAMYYCAAAIVGGFNAYCSGGYVLDFGAWGQGTQVTVSS
notes: as for B14
B16: AS63937 (VHH)
VHH: QVKLVESGGGSVQAGGSLRLSCAASGSTISSRPMAWFRQAPGKEREGVACIHTGLGRTYYADSVKGRFTISQDNAKNTVYLQVNSLKPEDTAMYYCAADSRRPCMVAAGYTYWGQGTQVTVSS
notes: as for B14
B17: AS76169 (VHH)
VHH: QVHLMESGGGSVQAGGSLRLSCAASGYIYSSFCMGWFRQAPGKEREVVAYIRDNIMTSYTDSVKGRFTISKDNAKRTLYLQMNGLKPEDTGMYYCAVDRGGYANSCAVAARYDYWGRGTQVTVSS
notes: as for B14
B18: AS64060 (VHH)
VHH: QVKLVESGGGSVQAGGSLRLSCAASGSTYCTYRMSWFRQAPGKEREFVAVIDSGGSTSYADSVKGRFTISRDNAKNTVYLQMNSLKPEDTAMYYCKTDPTIGCPQTYRYNYWGQGTQVTVSS
notes: as for B14
B19: AS75695 (VHH)
VHH: QVRLVESGGGSVQAGGSLRLSCVASGYTVSAYCMGWFRQVLGKGRERIAFIDAGGATIYADPVKGRFTISKDNAKNTLYLQMNSLKPEDTAMYYCVADRRGRVRRCEYNAWGQGTQVTVSS
notes: as for B14
B20: AS63987 (VHH)
VHH: QVRLVESGGGSVQAGGSLRLSCEATGYRNCMAWFRQAPGKEREGVAVIYTPSGITDYASSVKGRFTISQNNARNTQYLQMNSLKPEDTAMYYCAADRPFVCNIANMRRSSNWGRGTQVTVSS
notes: as for B14
B21: AS69527 (VHH)
VHH: EVQLAESGGGSVQAGGSLRLSCVASRYTFSSTCMAWFRQAPGKEREEVAAIYTDDGSTWYADSVKGRFTISRDNAKNTVYLQMNSLKPEDTAMYYCAARRWACPRVGSWHEFAYWGQGTQVTVSS
notes: as for B14
B22: AS75387 (VHH)
VHH: QVHLVESGGGSVQAGGSLRLSCAASGYPYSSPCMAWFRQAPGKEREGVLVAYTGGDIQYLTDSVKGRFTISRDNAKNTVYLQMNSLKPEDTAMYYCAADLRLPRAGGCAYSYWGQGTQVTVSS
notes: as for B14
B23: AS63993 (VHH)
VHH: QVKLVESGGGLVQAGGSLRLSCTVSGFTFDDLVMAWFRQAPGKERQLVSLVATAGNSVYADSVKGRFTLSRDNAHSTAYLQMNGLKPEDTAMYYCAARTDSEHAFKFWGQGTQVTVSS
notes: as for B14
B24: AS68280 (VHH)
VHH: QVQLVESGGGSVHPGGSLRLSCAASGSTYSSNYLGWFRQAPGKGRDWVAAISTGDGATAYADSVKGRFTISQDNAKNTVYLQMNSLKLEDSAMYYCAAARGRFIDWTKATQYDYWGQGTQVTVSS
notes: as for B14
B25: AS63956 (VHH)
VHH: QVHLVESGGGLVQAGGSLRLSCAASGFTYSNCCMRWYRQAPGKARELVSLINSSGGTYYADSVRGRFTISKDNAKNTLYLQMNSLKPEDTAMYYCAAYQAKYCSGPCAPPTDWGQGTQVTVSS
notes: as for B14
B26: AS63965 (VHH)
VHH: QVQLVESGGGSVQAGGSLRLSCVASGYSSGSCRMGWYRQAPGKERELVSKVISDGTTVYADSVKGRFTLSQGNAKNTVYLQMSSLLPEDTAMYYCNAWCREYPGGILNNGWGQGTQVTVSS
notes: as for B14
B27: AS64006 (VHH)
VHH: QVHLVESGGGSVQAGGSLRLSCEVSGYTGDTTYIGWFRQAPGKEREGVALIYTSGTSEYYADSVKGRFIISRDNAKNTVYLQMNSLKPEDTAMYYCGARSRTMMYWGQGTQVTVSS
notes: as for B14
B28: AS64071 (VHH)
VHH: QVHLMESGGGSVQAGGSLRLSCVASGNTYRLNSMGWFRQAPGKEREGVAFIVMIRGTTYYGASVKGRFTISQDNAQTTVYLQMSSLKPEDTAMYYCAASTKDQFYVFNPIGYDSWGQGTQVTVSS
notes: as for B14

Biological target: T1, extracellular domain of human DLL3 …
Assay: SPR (Biacore), HCAb captured by anti-human Fc, human DLL3 as analyte, 1:1 fit
Source text: The camel and humanized sdAb sequences were fused with human IgG1 hinge and Fc, resulting the chimeric and humanized HCAb sequences. The DNAs encoding these HCAbs were synthesized and inserted into pTT5 vector. HCAb expression plasmids were used to transfect HEK293 cells. Crude HCAb proteins secreted to the medium were subjected to SPR affinity measurement as follows: briefly, capturing antibody anti-human Fc pAb (GE healthcare) was immobilized on a Biacore™ CM5 chip to approximately 6,000 RU using EDC-activated amine coupling chemistry. HCAb of interest was captured for 300 seconds onto the sensorchip surface. Human DLL3 (AdipoGen, AG-40B-0151) was flowed over the sensorchip surface at a series of increasing concentrations. Association and dissociation phases were monitored. Captured antibody and antigen were removed between cycles using 10 mM Glycine-HCl, pH 2.0 buffer in order to ensure a fresh binding surface for the antigen. The resulting sensorgrams were fit globally using a 1:1 binding model in order to calculate on- and off-rates (ka and kd, respectively), as well as affinities (KD).

Binder | Kd [nM] | koff [s⁻¹] | kon [M⁻¹ s⁻¹]
B1 | 21 | 0.018 | 840000
B2 | 37 | 0.021 | 580000
B3 | 33 | 0.06 | 1.8e+06
B4 | 45 | 0.0015 | 32000
B5 | 8.4 | 0.0056 | 670000
B6 | 17 | 0.0015 | 88000
B7 | 14 | 0.0044 | 310000
B8 | 26 | 0.0015 | 59000
B9 | 16 | 0.0064 | 390000
B10 | 3.4 | 0.00048 | 140000
B11 | 3 | 0.0004 | 130000
B12 | 2.9 | 0.00047 | 160000
B13 | 6 | 0.00094 | 160000

Biological target: T1, extracellular domain of human DLL3 …
Assay: ELISA (protein), FACS (cells)

Binder | binding result
B14 | binds
B15 | binds
B16 | binds
B17 | binds
B18 | binds
B19 | binds
B20 | binds
B21 | binds
B22 | binds
B23 | binds
B24 | binds
B25 | binds
B26 | binds
B27 | binds
B28 | binds
